Experimental data published in the RNAGym collection of RNA variant scans (doi:10.7554/elife.80360).

B1: CPEB3 Ribozyme (parent)
chain: GGGGGCCACAGCAGAAGCGUUCACGUCGCGGCCCCUGUCAGAUUCUGGUGAAUCUGCGAAUUCUGCUGU

Variants of: B1
Assay: self-cleavage, relative activity (ratio to wild type); higher = more cleavage; co-transcriptional

Question: With GGGGGCCACAGCAGAGGCGUUCACGGCGCGGCCCCUGUCAGAUUCUGGUGAAUCUGCGAAUUCUGCUGU [A16G U26G] as the variant, how does the self-cleavage read?
Answer: 0.848

Question: Which self-cleavage does the source give for GGGGGCCACAGCAGAGGCGUUCACGACGCGGCCCCUGUCAGAUUCUGGUGAAUCUGCGAAUUCUGCUGU [A16G U26A] here?
Answer: 0.801

Question: With GGGGGCCACAGCAGAGGCGUUCACGUCGCGGCCCUUGUCAGAUUCUGGUGAAUCUGCGAAUUCUGCUGU [A16G C35U] as the variant, how does the self-cleavage read?
Answer: 0.893

Question: For GGGGGCCACAGCAGAGGCGUUCACGUCGCGGCCCCUGUCAGAAUCUGGUGAAUCUGCGAAUUCUGCUGU [A16G U43A], which self-cleavage is on record?
Answer: 0.784

Question: With GGGGGCCACAGCAGAGGCGUUCACGUCGCGCCCCCUGUCAGAUUCUGGUGAAUCUGCGAAUUCUGCUGU [A16G G31C] as the variant, how does the self-cleavage read?
Answer: 0.147

Question: With GGGGGCCACAGCAGAGGCGUUCACGUCGCGACCCCUGUCAGAUUCUGGUGAAUCUGCGAAUUCUGCUGU [A16G G31A] as the variant, how does the self-cleavage read?
Answer: 0.527

Question: For GGGGGCCACAGCAGAGGCGUUCACGUCGCGUCCCCUGUCAGAUUCUGGUGAAUCUGCGAAUUCUGCUGU [A16G G31U], which self-cleavage is on record?
Answer: 0.309

Question: For GGGGGCCACAGCAGAGGCGUUCACGUCGCGGCCCCCGUCAGAUUCUGGUGAAUCUGCGAAUUCUGCUGU [A16G U36C], which self-cleavage is on record?
Answer: 0.724

Question: For GGGGGCCACAGCAGAGGCGUUGACGUCGCGGCCCCUGUCAGAUUCUGGUGAAUCUGCGAAUUCUGCUGU [A16G C22G], which self-cleavage is on record?
Answer: 0.0656

Question: Which self-cleavage does the source give for GGGGGCCACAGCAGAGGCGUUCACGUCCCGGCCCCUGUCAGAUUCUGGUGAAUCUGCGAAUUCUGCUGU [A16G G28C] here?
Answer: 0.0652

Question: For GGGGGCCACAGCAGAGGCGUUCACGUCGAGGCCCCUGUCAGAUUCUGGUGAAUCUGCGAAUUCUGCUGU [A16G C29A], which self-cleavage is on record?
Answer: 0.224

Question: For GGGGGCCACAGCAGAGGCGUUCACGUCGUGGCCCCUGUCAGAUUCUGGUGAAUCUGCGAAUUCUGCUGU [A16G C29U], which self-cleavage is on record?
Answer: 0.111

Question: Which self-cleavage does the source give for GGGGGCCACAGCAGAGGCGUUCACGUCGCGGCCCCUGUCAGAUUCUGGUUAAUCUGCGAAUUCUGCUGU [A16G G50U] here?
Answer: 0.994

Question: Which self-cleavage does the source give for GGGGGCCACAGCAGAGGCGUUCACGUCGCGGCCCCUGUCAGAUUCUGGUGAAUCUGCGAUUUCUGCUGU [A16G A60U] here?
Answer: 0.207

Question: Which self-cleavage does the source give for GGGGGCCACAGCAGAGGCGUUCACGUCGCGGCCCCUGUCAGAUUCUGGUGAAUCUGCGACUUCUGCUGU [A16G A60C] here?
Answer: 0.58

Question: With GGGGGCCACAGCAGAGGCGUUCACGUCGCGGUCCCUGUCAGAUUCUGGUGAAUCUGCGAAUUCUGCUGU [A16G C32U] as the variant, how does the self-cleavage read?
Answer: 0.941

Question: Which self-cleavage does the source give for GGGGGCCACAGCAGAGGCGUUCACGUCGCGGCCCCUGUCAGAUUCUGGUGAAUCUGGGAAUUCUGCUGU [A16G C57G] here?
Answer: 0.324

Question: Which self-cleavage does the source give for GGGGGCCACAGCAGAGGCGUUCACGUCGCGGCCCCUGUCAGAUUCUGGUGAAUCUGUGAAUUCUGCUGU [A16G C57U] here?
Answer: 0.317

Question: With GGGGGCCACAGCAGAGGCGUUCACGUCGCGGCCCCUGUCAGAUUCUGGUGAAUCUGAGAAUUCUGCUGU [A16G C57A] as the variant, how does the self-cleavage read?
Answer: 0.335

Question: Which self-cleavage does the source give for GGGGGCCACAGCAGAGGCGUUCACGUCGCGGCCCCUGUAAGAUUCUGGUGAAUCUGCGAAUUCUGCUGU [A16G C39A] here?
Answer: 0.591

Question: Which self-cleavage does the source give for GGGGGCCACAGCAGAGGCGUUCACGUCGCGGCCCCUGUGAGAUUCUGGUGAAUCUGCGAAUUCUGCUGU [A16G C39G] here?
Answer: 0.745

Question: With GGGGGCCACAGCAGAGGCGUUCACGUCGCGGCCCCUGUUAGAUUCUGGUGAAUCUGCGAAUUCUGCUGU [A16G C39U] as the variant, how does the self-cleavage read?
Answer: 0.808

Question: For GGGGGCCACAGCAGAGGCGUUCACGUCGCGGCCCCUGUCAGCUUCUGGUGAAUCUGCGAAUUCUGCUGU [A16G A42C], which self-cleavage is on record?
Answer: 0.608

Question: With GGGGGCCACAGCAGAGGCGUUCACGUCGCGGCCCCUGUCAGAUUCUUGUGAAUCUGCGAAUUCUGCUGU [A16G G47U] as the variant, how does the self-cleavage read?
Answer: 0.998

Question: For GGGGGCCACAGCAGAGGCGUUCACGUCGCGGCCCCUGUCAGAUUCUGGUGAAUCUGCGAAUUCUGCUUU [A16G G68U], which self-cleavage is on record?
Answer: 0.956

Question: Which self-cleavage does the source give for GGGGGCCACAGCAGAGGCGUUCACGUCGCGGCCCCUGUCAGAUUCUGGUGAAUCUGCGAAUUCUGCUCU [A16G G68C] here?
Answer: 0.981

Question: With GGGGGCCACAGCAGAGGCGUUCACGUCGCGGCCCCUGUCAGAUUCUGGUGAAUCUGCGAAUUCUCCUGU [A16G G65C] as the variant, how does the self-cleavage read?
Answer: 0.446

Question: Which self-cleavage does the source give for GGGGGCCACAGCAGAGGCGUUCACGUCGCUGCCCCUGUCAGAUUCUGGUGAAUCUGCGAAUUCUGCUGU [A16G G30U] here?
Answer: 0.201

Question: For GGGGGCCACAGCAGAGGCGUUCACGUCGCCGCCCCUGUCAGAUUCUGGUGAAUCUGCGAAUUCUGCUGU [A16G G30C], which self-cleavage is on record?
Answer: 0.105

Question: For GGGGGCCACAGCAGAGGCGUUCACGUCGCAGCCCCUGUCAGAUUCUGGUGAAUCUGCGAAUUCUGCUGU [A16G G30A], which self-cleavage is on record?
Answer: 0.612

Question: For GGGGGCCACAGCAGAGGCGUUCACUUCGCGGCCCCUGUCAGAUUCUGGUGAAUCUGCGAAUUCUGCUGU [A16G G25U], which self-cleavage is on record?
Answer: 0.174

Question: For GGGGGCCACAGCAGAGGCGUUCACCUCGCGGCCCCUGUCAGAUUCUGGUGAAUCUGCGAAUUCUGCUGU [A16G G25C], which self-cleavage is on record?
Answer: 0.257

Question: With GGGGGCCACAGCAGAGGCGUUCACAUCGCGGCCCCUGUCAGAUUCUGGUGAAUCUGCGAAUUCUGCUGU [A16G G25A] as the variant, how does the self-cleavage read?
Answer: 0.283

Question: With GGGGGCCACAGCAGAGGCGGUCACGUCGCGGCCCCUGUCAGAUUCUGGUGAAUCUGCGAAUUCUGCUGU [A16G U20G] as the variant, how does the self-cleavage read?
Answer: 0.155

Question: Which self-cleavage does the source give for GGGGGCCACAGCAGAGGCGCUCACGUCGCGGCCCCUGUCAGAUUCUGGUGAAUCUGCGAAUUCUGCUGU [A16G U20C] here?
Answer: 0.159

Question: With GGGGGCCACAGCAGAGGCGAUCACGUCGCGGCCCCUGUCAGAUUCUGGUGAAUCUGCGAAUUCUGCUGU [A16G U20A] as the variant, how does the self-cleavage read?
Answer: 0.129

Question: For GGGGGCCACAGCAGAGGCGUUCACGUCGCGGCCCCUGUCAGAUUCUGGUGAAUCUGCCAAUUCUGCUGU [A16G G58C], which self-cleavage is on record?
Answer: 0.95

Question: Which self-cleavage does the source give for GGGGGCCACAGCAGAGGCGUUCACGUCGCGGCCCCUGUCAGAUUCUGUUGAAUCUGCGAAUUCUGCUGU [A16G G48U] here?
Answer: 0.974

Question: For GGGGGCCACAGCAGAGGCGUUCACGUCGCGGCCCCUGUCAGAUUCUGAUGAAUCUGCGAAUUCUGCUGU [A16G G48A], which self-cleavage is on record?
Answer: 0.964
